The labels stand for the following.
B1: antibody 9-24 (antibody, V domains shown)
VH: EVQLVESGGGLVQPGGSLRLSCAASGFTFSDSAVHWVRQASGKGLEWVGRIRNRNNNYATAYAASVKGRFTISRDDSENMAYLQMNGLKTEDTAIYYCTDLLAYWGQGTLLTVSS
VL: SYELTQPPSVSVSPGQTARITCSADALPKQYAYWYQQKAGQAPVLVIYKDNERPSGIPERFSGSSSGTTVTLTISGVQAEDEADYYCQSADSSGGYRVFGGGTKLTVL
B2: antibody 9-11 (antibody, V domains shown)
VH: QVQLVQSGAEVKKPGASVKVSCKASGYTFTSYAISWVRQAPGQGLEWMGWISAYTGNTNYAQKLQGRVTMTTDTSTSTAYMELRSLRSDDTAVYYCARNGWDYDTSGTHDYWGQGTLVTVSS
VL: not shown
B3: antibody 9-15 (antibody, V domains shown)
VH: QVQLVQSGAEVKKPGSSVKVSCKASGGTFSSYAISWVRQAPGQGLEWMGGIIPIFGTANYAQKFQGRVTITAEESTSTAYMELSSLRSEDTAVYYCARDGWAAAGPDTSLLGTFDIWGQGTMVTVSS
VL: QSALTQPPSVSGSPGQSVTISCTGTSSDVGSYNRVSWYQQPPGTAPKLIIYEVSNRPSGVPDRFSGSKSGNTASLTISGLQAEDEADYYCSSYTSSSTYVVFGGGTKLTVL
B4: antibody 9-17 (antibody, V domains shown)
VH: QVQLVQSGAEVKKPGSSVKVSCKASGGTFSNYVISWVRQAPGQGLEWMGGIIPIFGTAKYAQKFQGRVAITADESTSTAYMEVSSLRSEDTAVYYCARAGYCSGGSCRRPSDYYGMDVWGQGTTVTVSS
VL: not shown

The target of the assay is SARS-CoV-2 nucleocapsid phosphoprotein (SARS-CoV-2, UniProt P0DTC9 1-419). Kind of assay: SPR. (In SPR one partner is held on a chip, and binding of the other changes the refractive index at the surface.)
The term Kd denotes the equilibrium constant for the complex coming apart. Low values mean a tighter complex, high ones a looser complex. In turn, B1 returned a dissociation constant Kd of 2.36 nM.

B2 gave a Kd of 0.08 nM. Against the preceding molecule, the Kd is about 29-fold lower.

The molecule B3 displayed a Kd of 0.1 nM.

On to B4, for which binding was put at a Kd of 0.18 nM. Compared with the last molecule, the Kd is about 1.8-fold higher.

The values above are taken from patent US20240003880A1 (published 2024).
